Data on 6 molecules can be found in paper PMC4495429 (Scientific Reports, 2015).

In data set [1] the target is T1, homoserine dehydrogenase (HseDH) (Pyrococcus horikoshii, UniProt O58802, K57A).
T1 construct: gene PH1075; ordered residues 1-319 in each subunit (homodimer)
T1 sequence (O58802 1-319 K57A): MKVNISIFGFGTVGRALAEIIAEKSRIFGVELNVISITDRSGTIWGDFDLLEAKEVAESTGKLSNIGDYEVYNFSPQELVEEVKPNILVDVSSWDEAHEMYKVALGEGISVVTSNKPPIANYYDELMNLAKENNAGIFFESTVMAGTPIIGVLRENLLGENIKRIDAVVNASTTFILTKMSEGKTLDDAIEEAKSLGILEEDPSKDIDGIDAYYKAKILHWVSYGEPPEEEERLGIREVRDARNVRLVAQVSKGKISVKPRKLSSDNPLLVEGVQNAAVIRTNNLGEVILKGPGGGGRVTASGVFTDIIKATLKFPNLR
The experiment in a line: crystal structure at […] Å (with NADPH). In kind it is binding.

Data set [2] addresses T2, homoserine dehydrogenase (HseDH) (Pyrococcus horikoshii, UniProt O58802).
T2 sequence (O58802 1-319): T1 sequence (O58802 1-319 K57A) with A57K
Put plainly: inhibition of NAD-dependent Hse oxidation, Morrison tight-binding fit. It counts as biochemical. Also noted: gene PH1075; His-tagged HseDH.

The target of data set [3] is T3, homoserine dehydrogenase (HseDH) (Pyrococcus horikoshii, UniProt O58802, R40A).
T3 construct: gene PH1075; His-tagged HseDH
T3 sequence (O58802 1-319 R40A): T1 sequence (O58802 1-319 K57A) with R40A, A57K
The experiment in a line: FT-ICR MS of cofactor released from purified protein. In kind it is binding.

Data set [4] has as its target T1, homoserine dehydrogenase (HseDH). The experiment in a line: crystal structure at […] Å (with Hse); FT-ICR MS. In kind it is binding.
The target of data set [5] is T2, homoserine dehydrogenase (HseDH). The experiment in a line: crystal structure at […] Å; FT-ICR MS of released cofactor. In kind it is binding. Also noted: gene PH1075; ordered residues 1-319 in each subunit (homodimer).
Substrate in data set [6]: NC(=O)C1=CN([C@@H]2O[C@H](COP(=O)(O)OP(=O)(O)OC[C@H]3O[C@@H](n4cnc5c(N)ncnc54)[C@H](O)[C@@H]3O)[C@@H](O)[C@H]2O)C=CC1
The experiment in a line: purified protein. The settings on record: varied: cofactor.

Substrate in data set [7]: N[C@@H](CCO)C(=O)O
Put plainly: purified protein. The settings on record: NAD.

Substrate in data set [8]: NC(=O)c1ccc[n+]([C@@H]2O[C@H](COP(=O)([O-])OP(=O)(O)OC[C@H]3O[C@@H](n4cnc5c(N)ncnc54)[C@H](O)[C@@H]3O)[C@@H](O)[C@H]2O)c1
Put plainly: purified protein. In kind it is biochemical, Pyrococcus horikoshii. The note with it: varied: cofactor.

Data set [9] concerns the molecule itself. The experiment in a line: SEC; gel filtration on Superose 6 10/300 GL, 10 mM Tris-HCl (pH 7.5) with 0.2 M NaCl; native mass against Bio-Rad gel filtration standards.
Substrate in data set [10]: NC(=O)c1ccc[n+]([C@@H]2O[C@H](COP(=O)(O)OP(=O)(O)OC[C@H]3O[C@@H](n4cnc5c(N)ncnc54)[C@H](OP(=O)(O)O)[C@@H]3O)[C@@H](O)[C@H]2O)c1
The experiment in a line: purified protein. It counts as biochemical, Pyrococcus horikoshii. The note with it: varied: cofactor.

Data set [11] concerns the molecule itself. The experiment in a line: crystal structure; sitting-drop vapor diffusion at 20 °C; wild type: 0.1 M potassium phosphate pH 6.2, 20% MPD; K57A with 1 mM Hse: 16% PEG monomethyl ether 2000, 0.1 M citrate pH 6.5; one homodimer in the asymmetric unit.

Substitutions are numbered along the chain they refer to. Names and notes keep the numbering of the source.

As for `N[C@@H](CCO)C(=O)O` [Hse], in [1], the “crystal structure at 2.43 Å (with NADPH)” value is “extra density within the active site cavity, and after construction and refinement of the peptide chain, a Hse molecule could be modeled”.
In data set [2], `NC(=O)c1ccc[n+]([C@@H]2O[C@H](COP(=O)(O)OP(=O)(O)OC[C@H]3O[C@@H](n4cnc5c(N)ncnc54)[C@H](OP(=O)(O)O)[C@@H]3O)[C@@H](O)[C@H]2O)c1` [NADP] had a Ki of 5.2 ± 0.1 nM.
For the molecule `NC(=O)C1=CN([C@@H]2O[C@H](COP(=O)(O)OP(=O)(O)OC[C@H]3O[C@@H](n4cnc5c(N)ncnc54)[C@H](OP(=O)(O)O)[C@@H]3O)[C@@H](O)[C@H]2O)C=CC1` [NADPH], in [3], the “FT-ICR MS of cofactor released from purified protein” value was “indicating that NADPH tightly bound to R40A, as in the case of the wild type enzyme”. Also, the “crystal structure at 2.43 Å (with Hse); FT-ICR MS” value in [4] is reported as “we observed a clear density corresponding to the cofactor bound within the nucleotide-binding site”. Besides, in [5], the “crystal structure at 2.30 Å; FT-ICR MS of released cofactor” value is reported as “These results demonstrate that the molecule bound to P. horikoshii HseDH is NADPH”.

B1: Pyrococcus horikoshii homoserine dehydrogenase (HseDH), His-tagged wild type (enzyme, UniProt O58802 1-319, looked up)
chain: T1 sequence (O58802 1-319 K57A) with A57K
notes: Homoserine dehydrogenase, Pyrococcus horikoshii, open reading frame PH1075; amplified from the initiation codon to the termination codon; ordered residues 1-319 in each subunit of the crystal; calculated molecular weight 36,925; Expressed from pColdI (construct pCHseDH); the vector probably adds an N-terminal His6 tag with a factor Xa site (surmised); no tag removal is described; also called P. …
Turning to B1, in “purified protein [6]”, the Km turned out to be 19 ± 10 µM. For the same molecule, in the data set “purified protein [7]”, the Km was 6100 ± 100 µM. For the same molecule, in “purified protein [8]”, the Km was determined as 320 ± 40 µM, the Vmax was 114 µmol/min/mg, the kcat stood at 70.1 ± 4.5 s⁻¹ and the kcat/Km worked out at 219000 ± 13000 M⁻¹ s⁻¹. The “stoichiometry N” value in data set [9] amounted to 2.

B2: Pyrococcus horikoshii homoserine dehydrogenase (HseDH) K57A mutant, His-tagged (enzyme, UniProt O58802 1-319, looked up)
chain: T1 sequence (O58802 1-319 K57A)
notes: Homoserine dehydrogenase, Pyrococcus horikoshii, open reading frame PH1075, with K57A made by site-directed mutagenesis of pCHseDH; ordered residues 1-319 in each subunit of the crystal; Made from pCHseDH (pColdI); the vector probably adds an N-terminal His6 tag (surmised); Crystallized with Hse; source: E. coli BL21 (DE3) codon plus-RIPL, purified (same method as the His-tagged wild type)
With B2, in the data set “purified protein [10]”, the Km amounted to 60 ± 10 µM, the Vmax was found to be 43.3 µmol/min/mg, the kcat stood at 26.7 ± 0.2 s⁻¹ and the kcat/Km came to 518000 ± 29000 M⁻¹ s⁻¹. For the same molecule, the binding result in data set [11] is “binds”.

B3: homoserine dehydrogenase (HseDH) (Pyrococcus horikoshii OT3; R40A) (protein)
chain: T1 sequence (O58802 1-319 K57A) with R40A, A57K
notes: His-tagged HseDH
In the case of B3, in the data set “purified protein [10]”, the Km was 40 ± 10 µM, the Vmax was found to be 5.5 µmol/min/mg, the kcat stood at 3.4 ± 0.2 s⁻¹ and the kcat/Km was determined as 89100 ± 900 M⁻¹ s⁻¹.
